# B1: nattokinase (protein)
# chain: AQSVPYGISQIKAPALHSQGYTGSNVKVAVIDSGIDSSHPDLNVRGGASFVPSETNPYQDGSSHGTHVAGTIAALNNSIGVLGVAPSASLYAVKVLDSTGSGQYSWIINGIEWAISNNMDVINMSLGGPTGSTALKTVVDKAVSSGIVVAAAAGNEGSSGSTSTVGYPAKYPSTIAVGAVNSSNQRASFSSVGSELDVMAPGVSIQSTLPGGTYGAYNGTSMATPHVAGAAALILSKHPTWTNAQVRDRLESTATYLGNSFYYGKGLINVQAAAQ
# Tests used:
# [1] = molecular target: Aβ40 fibrils formed from a synthetic Aβ40 peptide
# [2] = molecular target: β2-microglobulin (β2-M) fibrils, P61769
# [3] = molecular target: T1, insulin fibrils formed from purified bovine insulin, P01317
# T1 chain: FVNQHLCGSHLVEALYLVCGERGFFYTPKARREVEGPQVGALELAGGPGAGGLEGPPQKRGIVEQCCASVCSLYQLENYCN
# [4] = molecular target: transthyretin (TTR) fibrils, P02766
# Chain of β2-microglobulin (β2-M) fibrils, P61769 (P61769 21-119): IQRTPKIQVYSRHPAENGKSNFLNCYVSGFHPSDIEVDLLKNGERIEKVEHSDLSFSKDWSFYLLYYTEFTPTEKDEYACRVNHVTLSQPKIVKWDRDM
protein,measurement,setting,value
B1,"loss of negative ellipticity at 218 nm in CD spectra after 1 hr of digestion (40 C, pH 7)",[1],nattokinase degraded all three fibrils
same,"degradation of β2-M fibrils at pH 7.4 and 37 C, by ThT fluorescence emission at 487 nm",[2],"As for β2-M fibrils, it was degraded near completion in two hours"
same,"degradation of insulin fibrils at pH 5, 40 C, by CD spectroscopy",[3],"At pH 5, nattokinase did not show any activity"
same,"degradation of insulin fibrils at pH 5-10, 40 C, by CD spectroscopy",[3],the nattokinase activity increased gradually with increasing pH and reached a maximal activity at pH 10 in the range tested
same,"loss of negative ellipticity at 218 nm in CD spectra after 1 hr of digestion (40 C, pH 7)",[3],nattokinase degraded all three fibrils
same,"degradation of TTR fibrils at pH 7.4 and 37 C, by ThT fluorescence emission at 487 nm",[4],TTR fibrils were almost completely degraded by nattokinase in one hour

# — patent publication US20100129294
